Patent US20220275103A1 (CENTRICSBIO, published 2022)

T1: mouse CD300c antigen (mouse)
T1 sequence (A2A7V7 whole entry, looked up): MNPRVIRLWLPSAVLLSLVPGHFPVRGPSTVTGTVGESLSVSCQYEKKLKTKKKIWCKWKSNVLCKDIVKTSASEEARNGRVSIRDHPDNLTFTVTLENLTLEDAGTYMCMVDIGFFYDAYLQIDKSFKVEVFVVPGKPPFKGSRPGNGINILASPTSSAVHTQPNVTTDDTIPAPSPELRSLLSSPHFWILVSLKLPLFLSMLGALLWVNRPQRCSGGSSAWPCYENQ

T2: ICOS Ligand[B7-H2] (Sino Biological) (UniProt O75144 19-258, limits assumed)
T2 sequence (looked up): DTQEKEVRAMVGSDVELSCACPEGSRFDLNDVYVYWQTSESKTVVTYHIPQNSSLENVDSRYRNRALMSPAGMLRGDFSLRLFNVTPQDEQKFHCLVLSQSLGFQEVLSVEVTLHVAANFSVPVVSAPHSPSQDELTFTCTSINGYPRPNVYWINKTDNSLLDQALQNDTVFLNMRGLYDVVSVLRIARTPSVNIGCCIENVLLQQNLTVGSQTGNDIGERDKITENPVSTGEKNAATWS

T3: CD300a antigen (12449-H08H, Sino Biological) (UniProt Q9UGN4 18-180)
T3 sequence (looked up): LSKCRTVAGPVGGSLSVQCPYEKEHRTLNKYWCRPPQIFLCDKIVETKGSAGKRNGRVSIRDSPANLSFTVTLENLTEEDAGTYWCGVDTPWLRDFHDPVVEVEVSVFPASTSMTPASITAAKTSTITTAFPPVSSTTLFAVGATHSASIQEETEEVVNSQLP

T4: CD276[B7-H3] (Sino Biological) (UniProt Q5ZPR3 29-461, limits assumed)
T4 sequence (looked up): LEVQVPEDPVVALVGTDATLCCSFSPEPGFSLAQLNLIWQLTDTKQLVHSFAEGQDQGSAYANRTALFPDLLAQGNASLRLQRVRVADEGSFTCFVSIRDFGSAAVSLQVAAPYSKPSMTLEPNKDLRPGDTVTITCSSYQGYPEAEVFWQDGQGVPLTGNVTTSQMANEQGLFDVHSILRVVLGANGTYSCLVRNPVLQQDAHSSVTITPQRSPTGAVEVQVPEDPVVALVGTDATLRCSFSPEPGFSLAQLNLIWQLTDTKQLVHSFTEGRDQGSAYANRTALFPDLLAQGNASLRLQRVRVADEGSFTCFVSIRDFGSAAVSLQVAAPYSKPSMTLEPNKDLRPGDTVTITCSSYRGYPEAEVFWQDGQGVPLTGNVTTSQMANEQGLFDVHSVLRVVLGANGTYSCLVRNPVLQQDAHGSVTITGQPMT

T5: CD86[B7-2] (Sino Biological) (UniProt P42081 24-247, limits assumed)
T5 sequence (looked up): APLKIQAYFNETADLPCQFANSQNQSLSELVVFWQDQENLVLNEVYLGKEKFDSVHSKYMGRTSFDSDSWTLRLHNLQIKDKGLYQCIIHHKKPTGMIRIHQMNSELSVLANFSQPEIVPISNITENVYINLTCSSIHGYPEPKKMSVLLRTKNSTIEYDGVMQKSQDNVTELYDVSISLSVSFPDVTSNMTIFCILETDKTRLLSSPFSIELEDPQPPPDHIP

T6: B7-H4 (Sino Biological) (UniProt Q7Z7D3 25-258, limits assumed)
T6 sequence (looked up): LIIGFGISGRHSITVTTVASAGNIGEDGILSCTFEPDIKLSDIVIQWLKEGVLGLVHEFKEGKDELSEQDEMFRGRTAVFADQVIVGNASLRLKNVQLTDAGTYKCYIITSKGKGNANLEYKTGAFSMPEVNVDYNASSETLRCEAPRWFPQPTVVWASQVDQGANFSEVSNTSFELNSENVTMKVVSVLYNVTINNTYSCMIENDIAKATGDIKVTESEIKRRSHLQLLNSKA

T7: CD80[B7-1] (Sino Biological) (UniProt P33681 35-242, limits assumed)
T7 sequence (looked up): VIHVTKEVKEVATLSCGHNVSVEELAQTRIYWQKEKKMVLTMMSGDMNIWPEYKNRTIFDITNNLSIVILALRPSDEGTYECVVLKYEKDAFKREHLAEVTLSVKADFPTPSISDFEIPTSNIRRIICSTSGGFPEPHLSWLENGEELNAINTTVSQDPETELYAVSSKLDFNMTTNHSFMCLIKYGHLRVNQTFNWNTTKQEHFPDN

T8: CD273[PD-L2] (Sino Biological) (UniProt Q9BQ51 20-219, limits assumed)
T8 sequence (looked up): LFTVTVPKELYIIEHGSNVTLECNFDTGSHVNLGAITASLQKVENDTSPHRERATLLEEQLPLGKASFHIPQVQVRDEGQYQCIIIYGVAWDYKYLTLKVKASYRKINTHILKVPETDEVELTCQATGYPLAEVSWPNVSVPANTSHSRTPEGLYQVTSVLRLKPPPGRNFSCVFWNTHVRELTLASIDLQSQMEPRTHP

B1: CL10 (antibody, V domains shown)
VH: EVQLLESGGGLVQPGGSLRLSCAASGFTFSSYGMHWVRQAPGKGLEWVSAISGSGGSTYYADSVKGRFTISRDNSKNTLYLQMNSLRAEDTAVYYCASGYGLMDVWGQGTLVTVSS
VL: QSVLTQPPSASGTPGQRVTISCTRSSGIIASNYVQWYQQLPGTAPKLLIYRNNQRPSGVPDRFSGSKSGTSASLAISGLRSEDEADYYCSSYAGNNNLVFGGGTKLTVL
B2: CL7 (antibody, V domains shown)
VH: EVQLLESGGGLVQPGGSLRLSCAASGFTFSRYAMSWVRQAPGKGLEWVSAISGSGGSTYYADSVKGRFTISRDNSKNTLYLQMNSLRAEDTAVYYCARSSQGIFDIWGQGTLVTVSS
VL: QSVLTQPPSASGTPGQRVTISCSGNNIGTRRVHWYQQLPDTAPKLLIYSKNNRPSGVPDRFSGSKSGTSASLAISGLRSEDEADYYCAAWDDSLSGPVFGGGTKLTVL
notes: VH3VL1 phage library clone; also called anti-CD300c monoclonal antibody CL7; CB301 antibody CL7
B3: SL18 (antibody, V domains shown)
VH: RVQLLESGGGLVQPGGSLRLSCAASGFTFSDYHMHWVRQAPGKGLEWVSTISSSGGYTYYAESVKSRFTISRDNSKNTLYLQMNSLRAEDTAVYYCARSIRLPLDYWGQGTLVTVSS
VL: QSVLTQPPSASGTPGQRVTISCSGNNIGSKGVHWYQQLPGTAPKLLIYEDSKRPSGVRDRFSGSKSGTSASLAISGLRSEDEADYYCQSYDSTKGVVFGGGTKLTVL

Key:
mouse CD300c antigen = target: T1, mouse CD300c antigen; experiment: cell-based or functional assay
[1] = target: T2, ICOS Ligand[B7-H2] (Sino Biological); experiment: binding ELISA, antigens coated at 8 ug/mL, HRP anti-Fc IgG, O.D 450 nm
Procedure: (§1) Binding ELISA was performed to identify that the anti-CD300c monoclonal antibody CL7 specifically binds only to CD300c without binding to other B7 family proteins. More specifically, each of CD300c antigen, CD300a antigen, or seven B7 family protein antigens (PD-L1 [B7-H1] (Sino Biological), ICOS Ligand[B7-H2] (Sino Biological), CD276[B7-H3] (Sino Biological), B7-H4 (Sino Biological), CD80[B7-1] (Sino Biological), CD86[B7-2] (Sino Biological), CD273[PD-L2] (Sino Biological)) in a coating buffer (0.1 M sodium carbonate, pH 9.0) was coated on an ELISA plate at a concentration of 8 μg/mL per well, and then incubation was performed at 2° C. to 8° C. overnight so that the antigen bound to the plate. The unbound antigen was removed by performing washing with PBST three times, and then […] of blocking buffer (5% skim milk in PBST) was added to each well. Subsequently, blocking was performed at room temperature for 1 hour, and then washing was performed again with PBST. Thereafter, CL7 was diluted in quadruplicate with PBS, and subjected to reaction with the antigen at room temperature for 1 hour for antigen binding. 1 hour later, washing with PBST was performed three times. Then, a secondary antibody (HRP-conjugated anti-Fc IgG) diluted to 4 μg/mL in blocking buffer was added thereto, and reaction was allowed to proceed at room temperature for 1 hour. Subsequently, the unbound antibody for detection was removed using PBST, and then a TMB solution was added thereto. Reaction was allowed to proceed for 10 minutes for development. Then, 2 N sulfuric acid solution was added to terminate the development, and the absorbance was measured at 450 nm to identify the antibody that specifically binds to the CD300c antigen.

[2] = target: T3, CD300a antigen (12449-H08H, Sino …); experiment: as above
Procedure: as §1

[3] = target: T4, CD276[B7-H3] (Sino Biological); experiment: as above
Procedure: as §1

[4] = target: PD-L1 [B7-H1] (Sino Biological) (UniProt Q9NZQ7 19-239, limits assumed); experiment: as above
Chain of PD-L1 [B7-H1] (Sino Biological) (Q9NZQ7 19-239 limits assumed): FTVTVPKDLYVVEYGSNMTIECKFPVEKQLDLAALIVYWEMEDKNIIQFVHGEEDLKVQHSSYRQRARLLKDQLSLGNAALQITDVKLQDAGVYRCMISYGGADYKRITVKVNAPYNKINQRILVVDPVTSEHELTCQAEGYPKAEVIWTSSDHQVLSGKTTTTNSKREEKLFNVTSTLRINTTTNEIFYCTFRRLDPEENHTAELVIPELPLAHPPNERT
Procedure: as §1

[5] = target: T5, CD86[B7-2] (Sino Biological); experiment: as above
Procedure: as §1

B7-H4 (Sino Biological) = target: T6, B7-H4 (Sino Biological); experiment: as above
Procedure: as §1

[6] = target: T7, CD80[B7-1] (Sino Biological); experiment: as above
Procedure: as §1

[7] = target: T8, CD273[PD-L2] (Sino Biological); experiment: as above
Procedure: as §1

Row | Binder | cancer cell proliferation inhibitory effect on CT26 mouse colorectal cancer cells (CCK-8, 10 ug/mL antibody, 5 days), higher than the control group (mouse CD300c antigen) [%] | binding result [1] | binding result [2] | binding result [3] | binding result [4] | binding result [5] | binding result (B7-H4 (Sino Biological)) | binding result [6] | binding result [7]
1 | B1 | 15 |  |  |  |  |  |  |  | 
2 | B2 | 66 | no binding (tested: log10 about 0.4 (about 2.5 ug/ml)) | no binding (tested: log10 about 0.4 (about 2.5 ug/ml)) | no binding (tested: log10 about 0.4 (about 2.5 ug/ml)) | no binding (tested: log10 about 0.4 (about 2.5 ug/ml)) | no binding (tested: log10 about 0.4 (about 2.5 ug/ml)) | no binding (tested: log10 about 0.4 (about 2.5 ug/ml)) | no binding (tested: log10 about 0.4 (about 2.5 ug/ml)) | no binding (tested: log10 about 0.4 (about 2.5 ug/ml))
3 | B3 | 38 |  |  |  |  |  |  |  | 
